Measured values as given in article PMC3594540 (Nature structural & molecular biology, 2013).

T1: murine Gαq (residues 7–359), biotinylated for bead binding (murine, UniProt P21279 7-359)
T1 sequence: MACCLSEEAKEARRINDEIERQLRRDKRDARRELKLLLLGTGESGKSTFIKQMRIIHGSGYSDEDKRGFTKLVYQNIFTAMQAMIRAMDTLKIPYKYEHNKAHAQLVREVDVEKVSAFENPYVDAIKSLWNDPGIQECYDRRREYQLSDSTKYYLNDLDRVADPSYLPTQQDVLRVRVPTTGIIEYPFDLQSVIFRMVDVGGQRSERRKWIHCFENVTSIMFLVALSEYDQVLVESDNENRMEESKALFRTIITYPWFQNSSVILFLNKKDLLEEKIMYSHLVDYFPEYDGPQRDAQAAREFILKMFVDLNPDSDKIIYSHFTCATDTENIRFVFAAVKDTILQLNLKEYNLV

B1: human PLCβ3 (residues 10–1234) (enzyme)
chain: ALQLEPPTVVETLRRGSKFIKWDEETSSRNLVTLRVDPNGFFLYWTGPNMEVDTLDISSIRDTRTGRYARLPKDPKIREVLGFGGPDARLEEKLMTVVSGPDPVNTVFLNFMAVQDDTAKVWSEELFKLAMNILAQNASRNTFLRKAYTKLKLQVNQDGRIPVKNILKMFSADKKRVETALESCGLKFNRSESIRPDEFSLEIFERFLNKLCLRPDIDKILLEIGAKGKPYLTLEQLMDFINQKQRDPRLNEVLYPPLRPSQARLLIEKYEPNQQFLERDQMSMEGFSRYLGGEENGILPLEALDLSTDMTQPLSAYFINSSHNTYLTAGQLAGTSSVEMYRQALLWGCRCVELDVWKGRPPEEEPFITHGFTMTTEVPLRDVLEAIAETAFKTSPYPVILSFENHVDSAKQQAKMAEYCRSIFGDALLIEPLDKYPLAPGVPLPSPQDLMGRILVKNKKRHRPSAGGPDSAGRKRPLEQSNSALSESSAATEPSSPQLGSPSSDSCPGLSNGEEVGLEKPSLEPQKSLGDEGLNRGPYVLGPADREDEEEDEEEEEQTDPKKPTTDEGTASSEVNATEEMSTLVNYIEPVKFKSFEAARKRNKCFEMSSFVETKAMEQLTKSPMEFVEYNKQQLSRIYPKGTRVDSSNYMPQLFWNVGCQLVALNFQTLDVAMQLNAGVFEYNGRSGYLLKPEFMRRPDKSFDPFTEVIVDGIVANALRVKVISGQFLSDRKVGIYVEVDMFGLPVDTRRKYRTRTSQGNSFNPVWDEEPFDFPKVVLPTLASLRIAAFEEGGKFVGHRILPVSAIRSGYHYVCLRNEANQPLCLPALLIYTEASDYIPDDHQDYAEALINPIKHVSLMDQRARQLAALIGESEAQAGQETCQDTQSQQLGSQPSSNPTPSPLDASPRRPPGPTTSPASTSLSSPGQRDDLIASILSEVAPTPLDELRGHKALVKLRSRQERDLRELRKKHQRKAVTLTRRLLDGLAQAQAEGRCRLRPGALGGAADVEDTKEGEDEAKRYQEFQNRQVQSLLELREAQVDAEAQRRLEHLRQALQRLREVVLDANTTQFKRLKEMNEREKKELQKILDRKRHNSISEAKMRDKHKKEAELTEINRRHITESVNSIRRLEEAQKQRHDRLVAGQQQVLQQLAEEEPKLLAQLAQECQEQRARLPQEIRRSLLGEMPEGLGDGPLVACASNGHAPGSSGHLSGADSESQEENTQL
B2: TEV-cleaved murine Gαq (residues 7–359) (natural protein)
chain: T1 sequence
modifications: at least a fraction of the purified Gαq was palmitoylated (Cys9 and Cys10)
B3: Gαq-ΔN (domain or fragment)
chain: RRELKLLLLGTGESGKSTFIKQMRIIHGSGYSDEDKRGFTKLVYQNIFTAMQAMIRAMDTLKIPYKYEHNKAHAQLVREVDVEKVSAFENPYVDAIKSLWNDPGIQECYDRRREYQLSDSTKYYLNDLDRVADPSYLPTQQDVLRVRVPTTGIIEYPFDLQSVIFRMVDVGGQRSERRKWIHCFENVTSIMFLVALSEYDQVLVESDNENRMEESKALFRTIITYPWFQNSSVILFLNKKDLLEEKIMYSHLVDYFPEYDGPQRDAQAAREFILKMFVDLNPDSDKIIYSHFTCATDTENIRFVFAAVKDTILQLNLKEYNLV
modifications: biotinylated (b-Gαq, in the FCPIA)

Assays:
[1] = target: T1, murine Gαq (residues 7–359), …; assay: flow cytometry protein interaction assay
[2] = target: B1; assay: crystal structure
[3] = target: B1; assay: cell-based or functional assay

Binder: B1
- Ki [1]: 220 nM

Binder: B2
- binding result [2]: binds

Binder: B3
- EC50 of Gαq-stimulated PIP2 hydrolysis ([3H]-IP3 release from liposomes) [3]: 39 nM
- Max specific activity of Gαq-stimulated PIP2 hydrolysis (liposomes) [3]: 1600 nmol IP3/min/nmol PLCβ3
